# From patent US20230406922A1 (SIMCERE ZAIMING PHARMACEUTICAL, published 2023)
# T1: monkey CD19, full length, on HEK293T cells (monkey, UniProt P15391 20-556 (human entry))
# T1 construct: The entry holds the signal peptide; also called HEK293T-monkey CD19
# T1 chain: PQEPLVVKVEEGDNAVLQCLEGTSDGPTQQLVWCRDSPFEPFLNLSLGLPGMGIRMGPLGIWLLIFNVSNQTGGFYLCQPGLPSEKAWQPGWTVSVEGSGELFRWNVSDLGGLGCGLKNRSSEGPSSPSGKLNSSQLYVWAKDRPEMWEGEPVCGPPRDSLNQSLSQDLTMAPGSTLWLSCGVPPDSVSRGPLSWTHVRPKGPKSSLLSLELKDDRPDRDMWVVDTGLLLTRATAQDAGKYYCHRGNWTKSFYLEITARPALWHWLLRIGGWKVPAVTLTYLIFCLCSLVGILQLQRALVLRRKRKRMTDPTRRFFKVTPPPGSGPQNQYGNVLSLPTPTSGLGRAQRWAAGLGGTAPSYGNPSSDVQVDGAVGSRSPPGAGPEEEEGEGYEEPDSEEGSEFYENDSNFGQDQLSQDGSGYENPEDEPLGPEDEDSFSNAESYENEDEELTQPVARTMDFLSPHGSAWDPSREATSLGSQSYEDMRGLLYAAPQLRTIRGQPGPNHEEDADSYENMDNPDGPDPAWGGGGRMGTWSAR
# T2: cynomolgus monkey CD19 on peripheral blood B cells (cynomolgus monkey (Macaca fascicularis), UniProt A0A2K5W8L9 20-557)
# T2 construct: whole, on cells; also called cynomolgus monkey B cells
# T2 sequence: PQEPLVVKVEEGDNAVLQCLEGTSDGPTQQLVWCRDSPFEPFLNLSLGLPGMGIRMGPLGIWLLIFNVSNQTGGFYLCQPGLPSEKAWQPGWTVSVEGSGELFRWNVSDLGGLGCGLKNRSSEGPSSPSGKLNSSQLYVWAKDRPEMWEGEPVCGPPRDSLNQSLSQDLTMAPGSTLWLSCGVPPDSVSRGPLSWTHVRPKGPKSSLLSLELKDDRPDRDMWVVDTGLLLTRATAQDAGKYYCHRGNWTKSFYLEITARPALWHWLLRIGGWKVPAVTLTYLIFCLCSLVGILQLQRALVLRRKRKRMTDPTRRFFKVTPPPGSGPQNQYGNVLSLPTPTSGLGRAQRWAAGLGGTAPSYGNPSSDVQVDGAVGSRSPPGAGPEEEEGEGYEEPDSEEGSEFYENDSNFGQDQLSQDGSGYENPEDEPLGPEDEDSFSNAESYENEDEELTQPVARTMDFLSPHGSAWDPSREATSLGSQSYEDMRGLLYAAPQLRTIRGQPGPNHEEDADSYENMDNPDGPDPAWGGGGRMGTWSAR
# T3: murine CD19 protein (murine, UniProt P25918 19-287, limits assumed)
# T3 construct: also called mouse CD19-his protein
# T3 sequence (looked up): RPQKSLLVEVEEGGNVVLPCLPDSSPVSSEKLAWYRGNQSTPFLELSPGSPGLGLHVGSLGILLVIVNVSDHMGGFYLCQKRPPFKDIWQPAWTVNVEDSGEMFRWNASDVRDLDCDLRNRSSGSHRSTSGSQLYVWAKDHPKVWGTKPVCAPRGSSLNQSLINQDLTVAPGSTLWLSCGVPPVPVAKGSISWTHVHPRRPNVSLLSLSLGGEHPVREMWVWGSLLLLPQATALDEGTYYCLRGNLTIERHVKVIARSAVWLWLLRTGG
# Experiments:
# [1] = molecular target: T1, monkey CD19, full length, on HEK293T …; assay: FACS on HEK293T-monkey CD19 cells
# Protocol: (§1) For suspension cells Raji, the medium supernatant was discarded by direct centrifugation, and the cell pellet was washed twice with PBS. After cell counting of the cells obtained in the last step, the cell pellet was resuspended to 2×10⁶ cells/mL with a blocking solution [PBS+2% (w/w) BSA] and added into a 96-well FACS reaction plate at 50 μL/well. […] After the plate was centrifuged and washed 5 times with a PBS buffer, the results were assayed and analyzed by FACS (FACS Canto™, purchased from BD Biosciences). Data analysis was performed by software (CellQuest) to obtain the mean fluorescence intensity (MFI) of the cells. Then, analysis was performed by software (GraphPad Prism8), data were fitted, and EC₅₀ values were calculated.
# (§2) HEK293T-monkey CD19 cells were subjected to the FACS assay and data analysis according to the method described in Example 4.2.
# [2] = molecular target: T1, monkey CD19, full length, on HEK293T …; assay: FACS titration on HEK293T-monkey CD19 cells
# Protocol: as §1, §2
# [3] = molecular target: T2, cynomolgus monkey CD19 on peripheral …; assay: FACS on cynomolgus monkey PBMC, gated on CD20-positive B cells
# Protocol: Monkey peripheral blood mononuclear cells were extracted from fresh cynomolgus monkey peripheral blood (purchased from Shanghai Medicilon Inc.) according to Ficoll-Paque Plus (purchased from GE Healthcare, Cat. No. 171440-02). […] The cells were incubated at room temperature for 1 h. […] The cells were incubated at room temperature for 30 min in the dark, washed 5 times, gently resuspended in PBS, and assayed and analyzed by FACS (FACS Canto™, purchased from BD Biosciences), in which CD20 was used as a marker for B cells.
# murine CD19 protein = molecular target: T3, murine CD19 protein; assay: ELISA, murine CD19 coated
# monkey CD19-his protein = monkey CD19-his protein (monkey); assay: ELISA, monkey CD19 coated
# Protocol: After incubation for 2 h at 37° C., the plate was washed 3 times with PBS. […] After incubation for 1 h at 37° C., the plate was washed 5 times with PBS. A TMB substrate was added at 50 μL/well. After incubation at room temperature for 10 min, a stop solution (1.0 N HCl) was added at 50 μL/well. The OD450 nm values were read on an ELISA microplate reader (Multimode Plate Reader, EnSight, purchased from Perkin Elmer). […] The negative control antibody mIgG1 was an antibody against hen egg lysozyme, anti-hel-mIgG1 (purchased from Biointron, Cat. No. B118301), and the data in the table were OD450 nm values.
# IgG control was mIgG1, S003-NB151-89 was a clone that is selected from a library constructed by peripheral blood collected from Alpaca immunized by human CD19-His and can bind to a monkey CD19-His protein, and was used as a positive control, and the data in the table were OD450 nm values.
EC50 [1],maximum mean fluorescence intensity [1],EC50 (read off the curve) [2],proportion of positive cells to B cells (%) at 1 nM [3],proportion of positive cells to B cells (%) at 10 nM [3],proportion of positive cells to B cells (%) at 100 nM [3],OD450 at 0.0001 nM (murine CD19 protein),OD450 at 0.001 nM (murine CD19 protein),OD450 at 0.01 nM (murine CD19 protein),OD450 at 0.10 nM (murine CD19 protein),OD450 at 1.00 nM (murine CD19 protein),OD450 at 10.00 nM (murine CD19 protein),OD450 at 100.00 nM (murine CD19 protein),OD450 at 0.0001 nM (monkey CD19-his protein),OD450 at 0.001 nM (monkey CD19-his protein),OD450 at 0.01 nM (monkey CD19-his protein),OD450 at 0.10 nM (monkey CD19-his protein),OD450 at 1.00 nM (monkey CD19-his protein),OD450 at 10.00 nM (monkey CD19-his protein),OD450 at 100.00 nM (monkey CD19-his protein),Binder
2.08 nM,19500 MFI,~0.4 nM,3%,14%,71%,,,,,,,,,,,,,,,"9G8-mIgG1 (antibody, V domains shown, Control anti-CD19 antibody with monkey cross-activity) VH: EVQLVQSGAEVKKPGESLKISCKGSGYSFTSYWIGWVRQMPGKGLEWMGIIYPGDSDTRYSPSFQGQVTISADKSISTAYLQWSSLKASDTAMYYCARGVSGIYNLHGFDIWGQGTLVTVSS VL: DIQMTQSPSSLSASVGDRVTITCRASQSISSYLNWYQQKPGKAPKLLIYAASSLQSGVPSRFSGSGSGTDFTLTISSLQPEDFATYYCQQGRFGSPFTFGQGTKVEIKR"
,,,,,,0.06 OD450,0.06 OD450,0.05 OD450,0.05 OD450,0.06 OD450,0.07 OD450,0.1 OD450,0.05 OD450,0.05 OD450,0.05 OD450,0.05 OD450,0.05 OD450,0.05 OD450,0.09 OD450,"FMC63-mIgG1 (antibody, V domains shown, Parent murine antibody; also called murine antibody FMC63) VH: EVKLQESGPGLVAPSQSLSVTCTVSGVSLPDYGVSWIRQPPRKGLEWLGVIWGSETTYYNSALKSRLTIIKDNSKSQVFLKMNSLQTDDTAIYYCAKHYYYGGSYAMDYWGQGTSVTVSS VL: DIQMTQTTSSLSASLGDRVTISCRASQDISKYLNWYQQKPDGTVKLLIYHTSRLHSGVPSRFSGSGSGTDYSLTISNLEQEDIATYFCQQGNTLPYTFGGGTKLEITR"
